Experimental data as given in the DeepSol protein solubility set.

Assay: soluble on expression in E. coli; label from the status in PepcDB or PDB records

| Sequence | soluble on expression in E. coli |
| --- | --- |
| MGSDKIHHHHHHMILMNNPGDKEVLRLLKQRMESVSQVEETVKEIIRRVKEEGDRALEEFLKRFEKHPVGIENLRVTEKEISEAQVEEEFVETIKIVIEDLKEFHRRQEERSFFFTTKGGSFLGEMVVPLESVGIYVPGGKVPYFSTLLMCAVPAIVAGVERIAVTTPPNENGGISPYILKTCEILGLKEIYRMGGAHAVAALTYGTETVKPVDKIVGPGGVFVTLAKKHVYGDVGIDSIAGPSEIAIVTDGSADLDLIAADFLSQAEHDENAMSVVITTSKEVFEKLPQVIERHLEALPEERRKTARISTENFGTIILTDSLKRAFEISNLIAPEHLEVLVENPFEPLGHIKNAGSVFLGKYTCESVGDYGAGPNHVLPTFRSARFSSGLRVSDFTKKIFITHLSEEDFRRKSELYSKMARWEGFEAHARAIDVRREKL | not soluble |
| MGSDKIHHHHHHAEKLSDGKVKLGVLTDMTGYYADLAGPGSVVAARMAVEDFGGKVLGKPVELVSADHQLKADVASNIARKWIDEGQVDAIVDLVSSSTAGAVMPVAAEKKRITLLSGPGTTAFTGEKCTRYNVHYTYNNWALANGTGREVVKQGGDSWFFLTADYIFGKSLEEDTTKVVKAAGGKVLGAARYPSPGTTDFSSYLLQAQGSGAKIVGLANAGADTVNSIRQAEEFGVTPKQSLAGLLVFITDVHSLGLEAAKGMYLTTAFYWDLNDETRKWSRRFFQKHGKMPTMVQAGVYSSVMHYLKAVQAAGTDDADAVMAKMRETPVNDFFAKNARIGPDGLLRHDMYLARVKAPKDSKQPWDYYQIVKTIPAAEAFPSVEAQACPLAKR | not soluble |
| SLRETVFRNARVLDVARGAYDDGQSVVVRDGVIVAVATDAHRLAGADAREIDVAGRVLMPGLCDAHVHVTAFTPDFALLGRTAPSYVTVRAQDILQGMIGRGFTTVRDAGGADWGLAKALAEGAIVGPRLLYCGHALSQTGGHADMRGPGQHNLDQCLCCAGLGQVCDGVPEMRRACREEIRKGATHLKLMVSGGVASPTDRIDSTQFALDELRAACEEAEAANIPVMAHAYTGRAAVRALEAGVSSIEHGNLIDQAAIDTLLRLDRWLVPTLATYHALAAEGVEAGMPAELNKKVYTVLEAGTEALRMAAKAGVKLVYGSDLLGTMQRHQLTEFAIRAVVQDPIDILRAATTQAAALFRMEDRIGAVRAGYLADLLIVDGDVLHSVAPWSAPEETIKMVMKDGEILVSR | soluble |
| GPGSMLRLSLRRWCAAAASGSSTSTAHGSPPATTLPDFYGKSFSVSPRAWAQITRKNSEEGFTNDARYLRLAIDSGGCHGYVYKFSFEKNDEFSCEGDVAIAEVDAVSPSDEAFTGAQPSPRVVVDTLSASKLANATLDYHSELKGSAFVVVGNELVDESCACAMSFSMRKTTRQSVASSSSARGASSGDGGGHGGSGAAAPPAGSSLAANARPISRRSTTRATS | soluble |
| MSLTPQQVFVKCHFDYNPYNDNLIPCKEAGLKFSKGEILQIVNREDPNWWQASHVKEGGSAGLIPSQFLEEKRKAFVRRDWDNSGPFCGTISSKKKKKMMYLTTRNAEFDRHEIQIYEEVAKMPPFQRKTLVLIGAQGVGRRSLKNRFIVLNPTRFGTTVPFTSRKPREDEKDGQAYKFVSRSEMEADIKAGKYLEHGEYEGNLYGTKIDSILEVVQTGRTCILDVNPQALKVLRTSEFMPYVVFIAAPELETLRAMHKAVVDAGITTKLLTDSDLKKTVDESARIQRAYNHYFDLIIINDNLDKAFEKLQTAIEKLRMEPQWVPISWVYEGHHHHHH | soluble |
| GHMAKAYKQAGVDIEAGYQAVALMKEHVQKTMRPEVLGGIGGFGGLFDLSALGYRQPVLISGTDGVGTKLKLAFLLDRHDTIGIDCVAMCVNDIIVQGAEPLFFLDYIACGKAVPEKIAAIVKGVADGCVEAGCALIGGETAEMPGMYDEDEYDLAGFAVGVAEKERLITGETIQAGDALVGLPSSGLHSNGYSLVRRIVFEQAKLSLDEIYEPLDVPLGEELLKPTRIYAKLLRSVRERFTIKGMAHITGGGLIENIPRMLPPGIGARIQLGSWPILPIFDFLREKGSLEEEEMFSVFNMGIGLVLAVSPETAAPLVEWLSERGEPAYIIGEVAKGAGVSFAGGGRA | soluble |
| MGSIIFLEDRAFQGRIYGCTTDCPNLQPYFSRCNSIVVQSGCWMIYERPNYQGHQYFLRRGEYPDYQQWMGLSDSIRSCCLIPPHSGAYRMKIYDRDELRGQMSELTDDCLSVQDRFHLTEIHSLNVLEGSWILYEMPNYRGRQYLLRPGEYRRFLDWGAPNAKVGSLRRVMDLYLEHHHHHH | soluble |
| MSDPVADFLAREQNLFADFDGAPPAAAAANPDAPEADAPAPALDDDFGDLQIAGDEPPPVVHPTDSGVDLDGLVDDNAAAPAIVVPAVEPMVNGNHSASSGGSKGPSPILSTVPRIEAEKIRLWKAQQEQLLSKKDEAEEKKKIELRANAKKELEEWYKQREKTLQLSHDENLKNEKSNQELFAKQQDGDAQWETVNKLVDQQKSKSGKDLSRLKTLLAGLKHAGK | not soluble |
| MKIEFFHDVICSFCFPMSDRMHEIQQEFPEIELIHRSFALGWSANDFETMFGSRAAVKEEVLTHWVHANQNDSKHRFNIEGMRKQRFDFPTSKNVLLAAKAAGYIGNQDTYWLLFDKLQEGLFVRSLNIEEPEVIEKLVKETTIDFALWKEAVASEAVWTAVQEDFALASAYGLQGVPALIINQKYLINGAVPKQQISQTIQKILAEEKQQQPLVSLTPSSEESASCEFKEGTWTCH | not soluble |
| MGSDKIHHHHHHMKFFSLADEAEFKSIIISKNKAVDVIGSKLGGQVVSFSDEWFASAENLIQPTAPIRDPTRFVHSGAWYDGWETRRHNEMEYDWVIIKMGVAAAHIIGGEIDTAFFNGNHAPFVSIEALYDEGEEGNIVEDDSRWVEIVEKFECGPSQRHLFVRGNGLTKERFTHIKLKMYPDGGIARFRLYGRVVPPELKTKDHIIDLAYVCNGAVALKYSDQHFGSVDNLLLPGRGHDMSDGWETKRSRQPGHTDWAVIQLGRESSFIEKIIVDTAHFRGNFPQFITVEGCLKESESSENTGEGTWVELVGKSKTGPDKEHVYEIRKSIRVSHVKLTIIPDGGVKRIRVWGY | soluble |
| MGSDKIHHHHHHMGFRNVIITQHSKLSYSNNAMIVQNKDGINQIPLVDMDILLISTTQAVITSALVSKLAESGIKVIFTDNKNEPVTETVNYYPNNRSLDTYLQQYEWNDHVKEILWTKIVRSKIINQIKVLKNYQIDCQDLKIELDKLEINDMTNREAVVARKYFEKLFGNKYSRKDFTPMNAALNYGYSILLSAVNKEIVSAGYVTYLGIHHQSQENMFNFGSDLMESFRPVVDYWLADKNFLEFTPDIKYGLVDLLNLEIKYNKKQMLLKNAITKYVRDVIEYLNQETVEFDMEVEFTNEVPNNAINDNI | not soluble |
| MGQCRSANAEDAQEFSDVERAIETLIKNFHQYSVEGGKETLTPSELRDLVTQQLPHLMPSNCGLEEKIANLGSCNDSKLEFRSFWELIGEAAKSVKLERPVRGH | soluble |
| HVKLEQLGIPRQVLKYDDFLKSTQKSPATAPKPMPPRPPLPNQQFGVSLQHLQEKNPEQEPIPIVLRETVAYLQAHALTTEGIFRRSANTQVVREVQQKYNMGLPVDFDQYNELHLPAVILKTFLRELPEPLLTFDLYPHVVGFLNIDESQRVPATLQVLQTLPEENYQVLRFLTAFLVQISAHSDQNKMTNTNLAVVFGPNLLWAKDAAITLKAINPINTFTKFLLDHQGELFPSPDPSGL | soluble |
| GIDPFTNEAASAAGVVGGMVDSITQAINQLDEGPMGDPEGSFVDYQTTMVRTAKAIAVTVQEMVTKSNTSPEELGPLANQLTSDYGRLASQAKPAAVAAENEEIGAHIKHRVQELGHGCSALVTKAGALQCSPSDVYTKKELIECARRVSEKVSHVLAALQAGNR | soluble |
| MSLEPSVTGPSEAPVLDTAWMKAVPSVRPVPAGSAAEALEALAVKGRAADDSYERTAFGQAWLDVDRNGCDTRNDILRRDLAGVQFTEGSRCRVAGGEFHEPYTGAVVTFTRGAESSKAVQIDHVVALGDAWQKGAQQLTPQQRQSLANDPLNLVAADGPANQEKSASDAASWLPKNKTFRCHYVARQISVKAAYGLWVTQPEKDAMKRVLDSCPQQQTVMPREGHHHHHH | soluble |
